Source: the DeepSol protein solubility set

Experiment: soluble on expression in E. coli; label from the status in PepcDB or PDB records

Sequence | soluble on expression in E. coli
MGSDKIHHHHHHMIDIAEETGYQYEILISTRTSDEENYYYDEIKVVSRNTRKRSEGLARAVKSATGNYAFIFEPSVRYSLTYADLIYGYINLGTSEVLVSNILGFQTDVIKNVGNWRPLTCGEDIDLMARAFDSYGVISYPMGGLTGLDIDDLIYGKWRNRIEKALAMRDLVIAANLKHNNIAEMAESMGIDLPTYEWLISGRILSYLSGIRPYEKNVNNYIFIMERIIESYISQDYRRIDTVSASPYISLSNRTRKYLSSVSDLWTEQNTDNKYPRESV | not soluble
MGSDKIHHHHHHMSTSVLYHAFNLKGITYRATRFTGDVIEYFADVKEEYIRCPKCGQRKFTFKGQKTRSFHLGPMGRKRCFLVLSLHRIKCNTCDTLWWPDLPFMVGKHRFARSFALIVLDLLRFGTIRWVADYLGVGWDMIKEIHKLKLQRLYRNIPLHKVRYIGIDEFSIRKGHEYMTTVMDLSEGRILYATEGKGKEGILPFLKKLARKGKKLRAVAMDMGISFFSAVREALPNIDVVFDRYHIMALMNQGIENLRRNHQKELDDTGKQTLKGNRFLLLRNYDSLKPDHKERLDALMQANQPLFVMHSMKEQLRLFWEIPEYAQAVTFLDTWCKDAMLSGIKELVKVAKTLSGYRTAILNYFKHHITNAALEGTNNKIKTLKRQAYGFRDMEYFKLRLYHLHTQRYSLTG | not soluble
MSLRMRVGKFDYLNNFLPYYFLNEKVEIVEANPREMASMLLSGRIDYAPVPAFFYLKNRERLRHYEFCVASEGKVLSVVVVSRKKELDDGSIAVTPHSLTSVNLLKILLAERGMKNMLVEVNTAKASEMLELCPHALVIGDEAIKARMIYKVVMDLGEEWYELTSLPAVFGISASLKETNAEEMDRKILMATEEGYRRFDEVVRAAEKAFKMPREFLEEYFRTLKFRLSSKERRGLDEFEKYCRDYEGHHHHHH | soluble
MSLLLSATTSIHDLVTSHPYLIEVLADYAPAFAKLRNPLLRNTLGRVATLQQAADLAGLELTGLMAHLARAIMEHTKEAVTLVPRGAETPAHAVADGDSGCGGCTPRPAEGNTADRATRLATLRALLERLHQGTPLADLKEAFASAVGGISAAEVASLEKELVAGGVAETEIKRLCSLHVDIFREALAPQHVPDMPPGHPVHTYRAENAEATRIADEIISQIDRMRSVPGDTESPLDELAWSFSRRHVADLLADLAHVERHYTRKEMQLFPMLEENGIEAPPKVMWEVHDDIRSLLRKARETVEGPSPVAAATVARDAALAVKDMVDKEETVLFPMALESLTEAQWGRVRHGEDEIGYAWVTPEGEWTPQAADTPESLTMEGAATGTPDRVTLGTGTLTVETLDRMLRTLPLDLSLVDAEDRVAYYTDSTHRIFPRSAGVIGRNVRNCHPPKSVHMVEEILARFKTGERDEAAFWIELGGRFLHIRYFAVRSDEGRYLGCLEVAQDVTDIRALSGQRRLLDWNEGHHHHHH | not soluble
MHIMVTQGGLMSLSIVHTRAALGVNAPPITVEVHISKGLPGLTMVGLPETTVKEARDRVRSAIINSGYEYPAKKITINLAPADLPKEGGRYDLPIAIALLAASEQLTANKLDEYELVGELALTGALRGVPGAISSATEAIKSGRKIIVAKDNEDEVGLINGEGCLIADHLQAVCAFLEGKHALERPKPTDAVSRALQHDLSDVIGQEQGKRGLEITAAGGHNLLLIGPPGTGKTMLASRINGLLPDLSNEEALESAAILSLVNAESVQKQWRQRPFRSPHHSASLTAMVGGGAIPGPGEISLAHNGVLFLDELPEFERRTLDALREPIESGQIHLSRTRAKITYPARFQLVAAMNPSPTGHYQGNHNRCTPEQTLRYLNRLSGPFLDRFDLSLEIPLPPPGILSKTVVPGESSATVKQRVMAARERQFKRQNKLNAWLDSPEIRQFCKLESEDAMWLEGTLIHLGLSIRAWQRLLKVARTIADIDQSDIITRQHLQEAVSYRAIDRLLIHLQKLLT | not soluble
MSYYHHHHHHLESTSLYKKSSSTPPRGVTVVNNFDAKRYLGTWYEIARFDHRFERGLEKVTATYSLRDDGGLNVINKGYNPDRGMWQQSEGKAYFTGAPTRAALKVSFFGPFYGGYNVIALDREYRHALVCGPDRDYLWILSRTPTISDEVKQEMLAVATREGFDVSKFIWVQQPGS | soluble
MGSDKIHHHHHHENLYFQGMLIEIPNVFSKQEVSHLREQLDARRWIDGNQTSGAMATTRKRNQQLDKDDPVAVALGQQIMDRLLAHPQFVSAALPLQFYPPLFNRYQGGETFGYHIDNAIRSTPDGMIRTDLSATLFLSEPENYQGGELVIQDTYGQQSIKLSAGSLVLYPSSSLHQVTPVLSGERTAAFMWLQSMVRDEGQRRLLFQLDQSIQSLTAQTAAEQELFNLSGVYHNLLRRWSEL | soluble
MKTIFSGIQPSGVITIGNYIGALRQFVELQHEYNCYFCIVDQHAITVWQDPHELRQNIRRLAALYLAVGIDPTQATLFIQSEVPAHAQAAWMLQCIVYIGELERMTQFKEKSAGKEAVSAGLLTYPPLMAADILLYNTDIVPVGEDQKQHIELTRDLAERFNKRYGELFTIPEARIPKVGARIMSLVDPTKKMSKSDPNPKAYITLLDDAKTIEKKIKSAVTDSEGTIRYDKEAKPGISNLLNIYSTLSGQSIEELERQYEGKGYGVFKADLAQVVIETLRPIQERYHHWMESEELDRVLDEGAEKANRVASEMVRKMEQAMGLGRRR | soluble
MAHHHHHHMSKKERYKIWKRIPKCELHCHLDLCFSADFFVSCIRKYNLQPNLSDEEVLDYYLFAKGGKSLGEFVEKAIKVADIFHDYEVIEDLAKHAVFNKYKEGVVLMEFRYSPTFVAFKYNLDIELIHQAIVKGIKEVVELLDHKIHVALMCIGDTGHEAANIKASADFCLKHKADFVGFDHGGHEVDLKEYKEIFDYVRESGVPLSVHAGEDVTLPNLNTLYSAIQVLKVERIGHGIRVAESQELIDMVKEKNILLEVCPISNVLLKNAKSMDTHPIRQLYDAGVKVSVNSDDPGMFLTNINDDYEELYTHLNFTLEDFMKMNEWALEKSFMDSNIKDKIKNLYF | not soluble
MGSDKIHHHHHHMGGLQNVRSAALIGHNGSGKSLLLAQILYKSGLIDKADTKYVDYDPVEEEKGASFSSHVASLEWKGKKVYLIDTPGFSDFISEVINGIFVSENIISVVNAVAGVEIQTERTWNMADEMKKPIIVFVNQMDKERANFENVVAELKERFSRKIVPVVVPIGAAENFEGVVDLLKKKAYRYDGDKVQEEDMPESFNDMRSEILEDIVEQDEELMMRYLDGEDIGYDELMRVLKEGYKKGEIVPVLSGSALKGIGLDLLLDYLGDIGVSPEEAPSYKALLEDGTEIEVKFSEEEPFCAYIFKSVVDQFVGRITFAKVIAGVLRPGDTVVNVQKDVTEKVGHVYVPILKQQKEVESAGPGEIVVLLKLKEGAVGETLAHRDRRVKIVPPAFPEPMFSRSVHPKSKSDIDKISSGLSRLSDSDPTFVWEYDPETGETVVSGLGAMHLDVMIERLKKIFGVDVEVGKPKIAYRETITTTAVAEHKHKKQTGGHGQYGHVKIQLEPLPRGQGYEFVDKIVGGVIPRNFIPSVDKGIREAMKKGVLAGYPVTDVRVILFDGSYHEVDSSDISFQIAAIQAFKKGMEAAKPVILEPIMEVEVFVPEENAGDVMGEISSRRGRPLGMEPSGKGMVKVKAEVPLAEMLDFSSKLSSITSGRGYFTMRFQRYEIVPPNIQEKIIEERRREMQEQEK | not soluble
AHHHHHHGSSKNYKKHQAYIAGRDKMKVAVITGASRGIGEAIAKALAEDGYSLALGARSVDRLEKIAKELSEKHGVEVFYDYLDVSKPESVEEFARKTLAHFGDVDVVVANAGLGYFGRLEELTEEQFHEMIEVNLLGVWRTIKAFLNSLKRTGGVAIVVTSDVSARLLPYGGGYVATKWAARALVRTFQIENPDVRFFELRPGAVDTYFGGSKAGKPKEQGYLKPEEVAEAVKYLLRLPKDVRVEELMLRSIYQKPEY | soluble
VFGYVTEDGDTALHLAVIHQHEPFLDFLLGFSAGHEYLDLQNDLGQTALHLAAILGEASTVEKLYAAGAGVLVAERGGHTALHLACRVRAHTCACVLLQPRPSHPRDASDTYLTQSQDCTPDTSHAPAAVDSQPNPENEEEPRDEDWRLQLEAENYDGHTPLHVAVIHKDAEMVRLLRDAGADLNKPEPTCGRTPLHLAVEAQAASVLELLLKAGADPTARMYGGRTPLGSALLRPNPILARLLRAHGAPEPEDGGDKLSPCEEEGEDEDSDNRDEGDEYDD | soluble
